Publication PMC7062719, “Full-length human GLP-1 receptor structure without orthosteric ligands” (Nature Communications, 2020)

Molecular target: T1, Human GLP-1R (Arg24-Leu422) fragment (human, UniProt P43220)
T1 construct: GLP-1 receptor, human, residues Arg24-Leu422; N-terminal HA-FLAG-B2-HRV14-3C tags and C-terminal HPC4-HRV14-3C-10x His tags; no 3C cleavage is described; also called detergent solubilized GLP-1R; source: Sf9 insect cells, baculovirus, co-expressed with DNGαs and Gβ1γ2; solubilised in LMNG/CHS, purified as a complex (HPC4 resin, SEC); not shown: HPC4, C-terminal, kept
Test: SEC + other: negative stain EM; Fab7F38 added at an estimated 1:1 ratio to the HPC4-purified GLP-1R–semaglutide–Gs–Nb35 complex, SEC on Superose 6 Increase (20 mM HEPES pH 7.5, 100 mM NaCl, 2 mM MgCl2, 1 μM semaglutide, LMNG/CHS), peak fraction used for single-particle 2D class averages
Settings: both partners purified

T1 sequence (P43220 24-422): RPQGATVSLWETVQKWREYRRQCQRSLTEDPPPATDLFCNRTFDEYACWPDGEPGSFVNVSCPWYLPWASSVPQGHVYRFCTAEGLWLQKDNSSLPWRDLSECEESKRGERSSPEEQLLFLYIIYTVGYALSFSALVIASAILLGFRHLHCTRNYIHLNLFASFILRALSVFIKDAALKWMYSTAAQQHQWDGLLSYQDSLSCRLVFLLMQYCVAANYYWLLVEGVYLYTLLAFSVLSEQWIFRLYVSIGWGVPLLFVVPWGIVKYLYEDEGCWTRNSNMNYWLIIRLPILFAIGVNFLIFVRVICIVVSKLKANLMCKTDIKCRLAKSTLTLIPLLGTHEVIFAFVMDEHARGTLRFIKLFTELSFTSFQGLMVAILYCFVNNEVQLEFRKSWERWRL

B1: Fab7F38 (Fab, V domains shown)
VH: EVQLQQSGPELVKPGASVKMSCKAPGYTFTSYVTHWVKQKPGQGLEWIGYINPYNDSPKYNEKYKAKATLTSDKSSSTVYMELSSLTSEDSAVYYCARIGYFRYDEGGNYALDYWGQGTSVTVSS
VL: QIVLTQSPAIMSASPGEKVTISCSASSSVSYMYWYQQKPGSSPKPWIYRTSKLASGVPVRFSGSGSGTSYSLTISNMEAEDAATYYCQQFHTYPWTFGGGTKLEIK
notes: source: ExpiCHO-S cells, transient transfection, purified (Protein G Sepharose, SEC Superdex 75)
binding result: binds
